For experiment [1], the target named is T1, human recombinant IL-21 (expressed in E. coli as the mature peptide); residues 30-162 of SEQ ID NO: 1 with an … (human, UniProt Q9HBE4 30-162).
T1 construct: The SPR and cell assays say only IL-21 / hIL-21 / recombinant human IL-21; also called hIL-21; human IL-21
Description: SPR Biacore T200, 25 C; mAb captured by anti-human Fc, hIL-21 analyte, 1:1 Langmuir; Exp 1. The protocol:
(§1) Anti-human Fc monoclonal antibodies from Biacore human Fc capture kit was immobilized onto flow cells of a CM4 sensor chip according to the manufacturer's instructions. The final immobilization level of capture antibody was approximately 2,500 RU in one experiment. […] Binding of hIL-21 protein was conducted by injecting analyte over all flow cells to allow for comparative analyses of binding to different captured anti-IL-21 antibodies relative to binding to the reference flow cell. hIL-21 protein was diluted serially 1:3 to 2-162 nM into running buffer, injected at 100 μl/min for 210 s and allowed to dissociate for 600 or 14000 s. The CM4 surface was regenerated after each injection cycle of analyte via two injections of 3M MgCl₂ at 50 μl/min. This regeneration step removed the anti-IL-21 antibody and any bound IL-21 from the immobilized capture antibody surface, and allowed for the subsequent binding of the next interaction sample pair.
(§2) No significant non-specific binding to the reference control surface was observed. Binding curves were processed by double referencing (subtraction of reference surface signals as well as blank buffer injections over captured anti-IL-21 antibodies). This allowed correction for instrument noise, bulk shift and drift during sample injections.
(Surface plasmon resonance follows binding to a sensor surface in real time, without labels.)

Experiment [2] deals with T1, human recombinant IL-21 (expressed in …). Description: SPR Biacore T200, 25 C; mAb captured by anti-human Fc, IL-21 analyte, 1:1 Langmuir. Here is the method: (§3) Experiments were run at 25° C. and the samples were stored at 10° C. in the sample compartment. The signal (RU, response units) reported by the Biacore is directly correlated to the mass on the individual sensor chip surfaces in four serial flow cells.
Anti-human Fc monoclonal antibody from Biacore human Fc capture kit was immobilized onto flow cells of a CM4 sensor chip according to the manufacturer's instructions. The final immobilization level of capture antibody was approximately 2,000 RU in one experiment. […] Capture of the human anti-IL-21 antibody mAb37 was conducted by diluting the antibody to 0.1 μg/ml into running buffer (10 mM Hepes 0.3 M NaCl, 5 mM CaCl2, 0.05% surfactant P20, pH 8.0 containing 1 mg/ml BSA) and injected at 10 μl/min for 180 s in one of flow cells 2-4, creating a reference surface in flow cell 1 with only anti-Fc antibody immobilized. […] Binding of IL-21 protein was conducted by injecting analyte over all flow cells to allow for comparative analyses of binding to different captured anti-IL-21 antibodies relative to binding to the reference flow cell. IL-21 protein was diluted serially 1:3 to 0.2-54 nM into running buffer, injected at 100 μl/min for 210 s and allowed to dissociate for 600 or 14000 s. The CM4 surface was regenerated after each injection cycle of analyte via two injections of 3M MgCl₂ at 50 μl/min. This regeneration step removed the anti-IL-21 antibody and any bound IL-21 from the immobilized capture antibody surface, and allowed for the subsequent binding of the next interaction sample pair. […] No significant non-specific binding to the reference control surface was observed.

The target is the same in experiment [3]. Description: SPR Biacore T200, calculated KD; Exp 2. Here is the method:
as §1, §2

Experiment [4] shares this target. The experiment can be described thus: SPR Biacore T200, 25 C; mAb captured by anti-human Fc, IL-21 analyte, 1:1 Langmuir. Here is the method:
as §3
Anti-human Fc monoclonal antibody from Biacore human Fc capture kit was immobilized onto flow cells of a CM4 sensor chip according to the manufacturer's instructions. The final immobilization level of capture antibody was approximately 2,000 RU in one experiment. […] Capture of the human anti-IL-21 antibody mAb37 was conducted by diluting the antibody to 0.1 μg/ml into running buffer (10 mM Hepes 0.3 M NaCl, 5 mM CaCl2, 0.05% surfactant P20, pH 8.0 containing 1 mg/ml BSA) and injected at 10 μl/min for 180 s in one of flow cells 2-4, creating a reference surface in flow cell 1 with only anti-Fc antibody immobilized. […] Binding of IL-21 protein was conducted by injecting analyte over all flow cells to allow for comparative analyses of binding to different captured anti-IL-21 antibodies relative to binding to the reference flow cell. IL-21 protein was diluted serially 1:3 to 0.2-54 nM into running buffer, injected at 100 μl/min for 210 s and allowed to dissociate for 600 or 14000 s. The CM4 surface was regenerated after each injection cycle of analyte via two injections of 3M MgCl₂ at 50 μl/min. […]
This is another data set of the same source.

Experiment [5] shares this target. The experiment can be described thus: cell-based or functional assay.
Experiment [6] shares this target. Description: SPR Biacore T200, 25 C; mAb captured by anti-human Fc, hIL-21 analyte, 1:1 Langmuir; Exp 2. The protocol:
as §1, §2

The target is the same in experiment [7]. Description: SPR Biacore T200, calculated KD; Exp 1. Here is the method:
as §1, §2

The target is the same in experiment [8]. Description: SPR Biacore T200; mAb captured by anti-human Fc, hIL-21 analyte. The protocol: as §1, §2
For experiment [9] the target is unchanged. Description: cell-based or functional assay. This is another data set of the same source.
Experiment [10] has the same target. Description: crystal structure, Areaimol (CCP4). The protocol: IL-21 (expressed in E. coli as the mature peptide; residues 30-162 of SEQ ID NO: 1 with an added N-terminal Methionine residue), in PBS buffer, pH 7.4 (4 tablets in 2 liter of water, GIBCO Cat. No. 18912-014 Invitrogen Corporation), and anti-IL-21 Fabs (comprising light chains and heavy chains corresponding to WT or mutants of SEQ ID No. 9 and 10, respectively, see example 6 and 14) formulated in PBS buffer, pH 7.4, were mixed in a 1:1 molar ratio. Crystals were grown with the sitting drop-technique with volumes according to Table 7. Total drop sizes were 0.2 or 0.3 μl, depending on the mixing ratio. Crystals were prepared for cryo-freezing by transferring of 3 μl of a cryo-solution, containing 75% of the precipitant solution and 25% glycerol, to the drop containing the crystal. Soakings were allowed for about one minute. The crystals were then fished into a MiTeGen MicroLoop™, flash frozen in liquid N2 and kept at a temperature of 100 K during data collection by a cryogenic N2 gas stream. Crystallographic data were collected at beam-line BL911-3 (Ursby et al., 2004) at MAX-lab, Lund, Sweden, to resolutions indicated in Table 8. Space group determination, integration and scaling of the data were made with the XDS software package (Kabsch, 2010). For the crystal complexes between hIL-21 and Fab56, Fab57 or Fab60, respectively, the Fab35/hIL-21 crystal structure were used as starting models for rigid body refinements in the Refmac5 software (Murshudov et al., 2011) of the CCP4 crystallography software suite (Bailey, 1994). Rigid body refinements were then followed by restrained crystallographic refinements, using the software programs Refmac5 and by computer graphics inspection of the electron density maps, model corrections and building using the Coot software program (Emsley et al., 2010). The procedure was cycled until no further significant improvements could be made to the model. Table 10, 11 and 13.
Table 9 show the calculated (by the software Areaimol (Lee & Richards, 1971, Saff & Kuijlaars, 1997)), average areas excluded in pair-wise interactions for the hIL-21/Fab56, hIL-21/Fab57, hIL-21/Fab59 and hIL-21/Fab60 complexes, respectively.

We go through eleven molecules from patent US20140170153A1 (Novo Nordisk, published 2014).

Changes are numbered by the printed parent chain. Numbers in names are those of the source. Where “and” joins values, the source holds several entries; their conditions need not be identical. Identical values can stand only once. Bounds are passed on as bounds.

T1 sequence (Q9HBE4 other isoform, or with tags, fused parts or gaps): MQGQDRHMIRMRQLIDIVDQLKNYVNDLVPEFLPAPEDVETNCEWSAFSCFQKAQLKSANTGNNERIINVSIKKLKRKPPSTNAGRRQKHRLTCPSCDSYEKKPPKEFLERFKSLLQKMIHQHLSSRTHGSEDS

B1: mAb37 (hinge stabilized S241P version of mAb14) (antibody, human IgG4 S228P, kappa)
heavy: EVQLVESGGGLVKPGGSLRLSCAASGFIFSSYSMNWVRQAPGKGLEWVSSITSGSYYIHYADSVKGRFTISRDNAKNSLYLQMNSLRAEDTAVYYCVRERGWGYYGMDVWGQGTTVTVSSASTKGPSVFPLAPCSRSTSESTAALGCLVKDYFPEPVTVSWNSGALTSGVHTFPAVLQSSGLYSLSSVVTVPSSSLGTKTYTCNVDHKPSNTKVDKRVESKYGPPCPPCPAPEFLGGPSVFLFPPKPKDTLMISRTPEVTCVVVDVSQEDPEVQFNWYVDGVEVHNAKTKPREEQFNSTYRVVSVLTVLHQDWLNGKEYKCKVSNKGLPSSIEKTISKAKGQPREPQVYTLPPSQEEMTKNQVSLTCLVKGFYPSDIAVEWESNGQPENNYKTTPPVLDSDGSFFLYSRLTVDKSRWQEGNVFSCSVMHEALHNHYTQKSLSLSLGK
light: AIQLTQSPSSLSASVGDRVTITCRASQDIDSALAWYQQKPGKAPKILIHDASSLESGVPSRFSGSGSGTDFTLTISSLQPEDFATYYCQQFNSYPYTFGQGTKLEIKRTVAAPSVFIFPPSDEQLKSGTASVVCLLNNFYPREAKVQWKVDNALQSGNSQESVTEQDSKDSTYSLSSTLTLSKADYEKHKVYACEVTHQGLSSPVTKSFNRGEC
notes: Human IgG4(S241P), kappa; recombinant from HEK293-6E; also called WT mAb37
The term koff denotes the rate constant with which the complex falls apart. The term kon denotes the rate constant with which the complex forms. A word on the Kd: it is a measure of binding affinity in units of concentration. As for B1, the koff in [1] was below 1e-05 s⁻¹; in experiment [2] it was 4.5e-06 s⁻¹ and 6.4e-06 s⁻¹; in experiment [6], below 1e-05 s⁻¹. Further, the kon in experiment [1] is 570000 M⁻¹ s⁻¹ and 590000 M⁻¹ s⁻¹ and 580000 M⁻¹ s⁻¹; in experiment [2], 640000 M⁻¹ s⁻¹ and 600000 M⁻¹ s⁻¹; in experiment [6], 660000 M⁻¹ s⁻¹ and 620000 M⁻¹ s⁻¹. Also, the Kd is 7 pM and 7.5 pM and 11 pM in [2]; below 0.015 nM in experiment [3]; below 0.02 nM in [4]; below 0.017 nM in experiment [7]. Besides, the “IC50 (nM) in B cell proliferation assay, Donor 1” value (from here on “IC50 (nM) … Donor 1”) in experiment [5] is 0.14 nM. Moreover, the “IC50 (nM) in B cell proliferation assay, Donor 2” value (from here on “IC50 (nM) … Donor 2”) in experiment [5] came to 0.18 nM.

B2: mAb65 (mAb37 variant, light chain D30E) (antibody, human IgG4 S228P, kappa, V domains shown)
VH: EVQLVESGGGLVKPGGSLRLSCAASGFIFSSYSMNWVRQAPGKGLEWVSSITSGSYYIHYADSVKGRFTISRDNAKNSLYLQMNSLRAEDTAVYYCVRERGWGYYGMDVWGQGTTVTVSS
VL: AIQLTQSPSSLSASVGDRVTITCRASQDIESALAWYQQKPGKAPKILIHDASSLESGVPSRFSGSGSGTDFTLTISSLQPEDFATYYCQQFNSYPYTFGQGTKLEIKR
notes: Human IgG4(S241P), kappa
Regarding B2, in [1], the koff was below 1e-05 s⁻¹; the kon is 520000 M⁻¹ s⁻¹ and 530000 M⁻¹ s⁻¹ and 540000 M⁻¹ s⁻¹. In experiment [5], the “IC50 (nM) … Donor 1” value was 0.49 nM and the “IC50 (nM) … Donor 2” value is 0.19 nM. The Kd in experiment [8] was below 0.02 nM. In addition, the “Bioactivity as % of RM (mAb37), NK-92 assay (alamarBlue)” value (“Bioactivity as % of RM (mAb37)” below) in experiment [9] is 96.8 % of RM (mAb37). Also, in experiment [7], the Kd is below 0.019 nM.

B3: mAb62 (mAb37 variant, heavy chain K65R) (antibody, human IgG4 S228P, kappa, V domains shown)
VH: B2 VH with K65R
VL: B2 VL with E30D
notes: Human IgG4(S241P), kappa
With B3, in experiment [1], the koff is below 1e-05 s⁻¹; the kon is 560000 M⁻¹ s⁻¹ and 580000 M⁻¹ s⁻¹ and 600000 M⁻¹ s⁻¹. Also, in experiment [5], the “IC50 (nM) … Donor 2” value was determined as 0.23 nM. In [8], the Kd is below 0.02 nM. In experiment [9], the “Bioactivity as % of RM (mAb37)” value is 73.2 % of RM (mAb37). The Kd in experiment [7] was below 0.017 nM.

B4: mAb61 (mAb37 variant, heavy chain D62E) (antibody, human IgG4 S228P, kappa, V domains shown)
VH: B2 VH with D62E
VL: B2 VL with E30D
notes: Human IgG4(S241P), kappa
Consider B4, for which the Kd in experiment [3] was below 0.015 nM. For the same molecule, in experiment [5], the “IC50 (nM) … Donor 1” value worked out at 0.22 nM and the “IC50 (nM) … Donor 2” value is 0.21 nM. Further, the Kd in experiment [8] was below 0.02 nM. Further, in [9], the “Bioactivity as % of RM (mAb37)” value is 86.2 % of RM (mAb37). Also, in experiment [6], the koff is below 1e-05 s⁻¹; the kon was 660000 M⁻¹ s⁻¹ and 670000 M⁻¹ s⁻¹.

B5: mAb63 (mAb37 variant, light chain R24K) (antibody, human IgG4 S228P, kappa, V domains shown)
VH: B2 VH
VL: B2 VL with R24K, E30D
Regarding B5, in experiment [5], the “IC50 (nM) … Donor 1” value turned out to be 0.16 nM and the “IC50 (nM) … Donor 2” value is 0.25 nM. In addition, the “Bioactivity as % of RM (mAb37)” value in experiment [9] is 92.1 % of RM (mAb37).

B6: Fab35 (Fab fragment of mAb14/mAb37) (Fab, V domains shown)
VH: B2 VH
VL: B2 VL with E30D
notes: also called anti-IL-21 Fab35
With B6, the “Avr Area (average areas excluded in pairwise interactions)” value (“Avr Area” below) in experiment [10] turned out to be 1060 Å^2.

B7: mAb64 (mAb37 variant, light chain Q27N) (antibody, human IgG4 S228P, kappa, V domains shown)
VH: B2 VH
VL: B2 VL with Q27N, E30D
B7: in [5], the “IC50 (nM) … Donor 1” value came out at 0.8 nM and the “IC50 (nM) … Donor 2” value worked out at 0.74 nM. For the same molecule, the “Bioactivity as % of RM (mAb37)” value in [9] is 116 % of RM (mAb37).

B8: Fab56 (Fab35 with H: D62E mutation; Fab fragment of mAb61) (Fab, V domains shown)
VH: B2 VH with D62E
VL: B2 VL with E30D
notes: also called aIL-21 Fab56
Regarding B8, the “Avr Area” value in experiment [10] was 1070 Å^2.

B9: Fab59 (Fab35 with L, Q27N mutation; Fab fragment of mAb64) (Fab, V domains shown)
VH: B2 VH
VL: B2 VL with Q27N, E30D
notes: also called aIL-21 Fab59
As for B9, the “Avr Area” value in [10] amounted to 1170 Å^2.

B10: Fab57 (Fab35 with H: K65R; Fab fragment of mAb62) (Fab, V domains shown)
VH: B2 VH with K65R
VL: B2 VL with E30D
notes: also called aIL-21 Fab57
For the molecule B10, the “Avr Area” value in experiment [10] was 1070 Å^2.

B11: Fab60 (Fab35 with L, D30E mutation; Fab fragment of mAb65) (Fab, V domains shown)
VH: B2 VH
VL: B2 VL
notes: also called aIL-21 Fab60
As to B11, the “Avr Area” value in experiment [10] is 1100 Å^2.
